Measured values published in patent publication US7910100B2, “Antibodies directed to the mammalian EAG1 ion channel protein” (Max-Planck-Gesellschaft zur Forderung der Wissen, priority 2004, dated 2011).

T1: Eag1 currents (Homo sapiens, UniProt O95259)
T1 construct: expressed in transfected cells; host or cells: HEK293
T1 sequence (O95259 1-962 isoform O95259-2): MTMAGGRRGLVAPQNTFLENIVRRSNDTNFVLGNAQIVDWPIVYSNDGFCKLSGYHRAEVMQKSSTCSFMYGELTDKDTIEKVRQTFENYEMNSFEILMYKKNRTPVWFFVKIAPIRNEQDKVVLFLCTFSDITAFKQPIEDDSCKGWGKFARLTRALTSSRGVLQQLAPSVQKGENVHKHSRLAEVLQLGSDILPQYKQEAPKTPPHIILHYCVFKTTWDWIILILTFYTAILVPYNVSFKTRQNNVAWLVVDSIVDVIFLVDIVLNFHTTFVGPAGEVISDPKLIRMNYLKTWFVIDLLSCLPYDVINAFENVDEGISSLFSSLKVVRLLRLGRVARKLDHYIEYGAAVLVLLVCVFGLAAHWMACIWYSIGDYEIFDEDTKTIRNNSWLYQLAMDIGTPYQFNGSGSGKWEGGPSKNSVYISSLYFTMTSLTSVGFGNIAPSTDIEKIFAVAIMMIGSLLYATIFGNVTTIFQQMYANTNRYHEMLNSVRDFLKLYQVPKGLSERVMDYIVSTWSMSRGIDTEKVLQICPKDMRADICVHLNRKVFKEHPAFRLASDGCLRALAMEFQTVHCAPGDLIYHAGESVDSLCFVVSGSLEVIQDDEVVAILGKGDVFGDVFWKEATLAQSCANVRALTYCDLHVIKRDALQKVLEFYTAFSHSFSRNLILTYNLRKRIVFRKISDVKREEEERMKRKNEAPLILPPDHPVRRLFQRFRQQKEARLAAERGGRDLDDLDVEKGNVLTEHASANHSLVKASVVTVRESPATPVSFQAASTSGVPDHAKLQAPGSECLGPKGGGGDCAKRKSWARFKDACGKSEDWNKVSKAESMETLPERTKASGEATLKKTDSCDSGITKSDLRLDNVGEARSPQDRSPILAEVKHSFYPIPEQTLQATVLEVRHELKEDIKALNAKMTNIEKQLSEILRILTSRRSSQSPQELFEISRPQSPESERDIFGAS

B1: ImAb1: mouse monoclonal anti-Eag1 antibody; VL SEQ ID NO: 43, VH SEQ ID NO: 44; binds C-terminus of Eag1 (antibody, listed as Mus musculus)
heavy: MNFGFSLIFLVLVLKGVQCEVKLVESGGGLVKPGGSLKLSCAASGFTFSNYAMSWVRQTPEKRLEWVASISSDGDTYFPDNVKGRFTISRENAGNILFLQMSSLRSEDTAMYYCARGFMITFWGQGTLVTVSAAKTTPPSVYPLAPGCGDTTGSSVTLGCLVKGYFPESVTVTWNSGSLSSSVHTFPALLQSGLYTMSSSVTVPSSTWPSQTVTCSVAHPASSTTVD
light: MDMRAPAQFFGILLLWFPGIRCDIKMTQSPSSMYASLGERVTITCKASQDIKSYLSWYQQKPWKSPKILIYYATSLADGVPSRISGSGSGQDYSLTISSLESDDTATYYCLQHGESPYTFGGGTKLEIKRADAAPTVSIFPPSSEQLTSGGASVVCFLNNFYPKDINVKWKIDGSERQNGVLNSWTDQDSKDSTYSMSSTLTLTKDEYERHNSYTCEATHKTSTSPIVKSFNRNEC
B2: ImAb4: mouse monoclonal anti-Eag1 antibody, IgG2b kappa; light chain SEQ ID NO: 2, heavy chain SEQ ID NO: 4 (antibody, listed as Mus musculus)
heavy: MRVLILLWLFTAFPGILSDVQLQESGPGLVKPSQSLSLTCTVTGYSITSDYAWNWIRQFPGNKLEWMGYISYSGSTIYNPSLKSRISITRDTSKNQFFLQLNSVTTEDTATYYCARFGNYGNTLNYWGQGTSVTVSSAKTTPPSVYPLAPGCGDTTGSSVTLGCLVKGYFPESVTVTWNSGSLSSSVHTFPALLQSGLYTMSSSVTVPSSTWPSQTVTCSVAHPASSTTVDKKLEPSGPISTINPCPPCKECHKCPAPNLEGGPSVFIFPPNIKDVLMISLTPKVTCVVVDVSEDDPDVQISWFVNNVEVHTAQTQTHREDYNSTIRVVSTLPIQHQDWMSGKEFKCKVNNKDLPSPIERTISKIKGLVRAPQVYILPPPAEQLSRKDVSLTCLVVGFNPGDISVEWTSNGHTEENYKDTAPVLDSDGSYFIYSKLNMKTSKWEKTDSFSCNVRHEGLKNYYLKKTISRSPGK
light: MKLPVRLLVLMFWIPASSSDVVMTQTPLSLPVSLGDQASISCRSSQSLVHSNGNTYLHWYLQKPGQSPKLLIYKVSNRFSGVPDRFSGSGSGTDFTLKISRVEAEDLGVYFCSQSTHVPPTFGGGTKLEIKRADAAPTVSIFPPSSEQLTSGGASVVCFLNNFYPKDINVKWKIDGSERQNGVLNSWTDQDSKDSTYSMSSTLTLTKDEYERHNSYTCEATHKTSTSPIVKSFNRNEC

Experiments:
[1] = test system: IPC-298 melanoma cells; assay: IPC-298 cell proliferation assay (AlamarBlue); type: cell-based, human; details: 5 μg/ml antibody, 7 days, pre-incubation with 40 mM KCl
Protocol: In vitro experiments were conducted in order to determine the ability of the antibodies of the invention to inhibit cancer cell proliferation. 1000 IPC-298 cells were seeded in 60 μl/well 10% FCS-containing medium (DMEM […] glucose) on 96-well plates overnight. Cells were pre-incubated in quadruplicates with 5 μg/ml anti-Eag1 monoclonal antibodies, ImAb1 and ImAb3, diluted in FCS-containing medium with 40 mM KCl for 1 h at 37° C. in 5% CO2. Treatment of the cells with 40 mM KCl ensures an open conformation of the ion channel Eag1 and might accelerate binding of the monoclonal anti-EAG1 antibodies to its corresponding epitope. After 1 h incubation, supernatants were removed and replaced with 100 μl/well FCS-containing medium with 5 μg/ml anti-Eag1 antibodies, ImAb1 and ImAb3. Cells were then incubated at 37° C. in 5% CO2 for 7 days. In order to assess proliferation and cell viability 10 μl/well AlamarBlue™ (BIOSOURCE) was added and incubated at 37° C. in the dark. Absorbance was measured using a spectrofluorometer at 590 nm every 30 min.

[2] = test system: IPC-298 melanoma cells; assay: IPC-298 cell proliferation with secondary immunotoxin Mab-ZAP; type: cell-based, human; details: in combination with secondary immunotoxin Mab-ZAP (100 ng/well), 72 hours
Protocol: In order to evaluate the specific suitability and efficacy of anti-Eag1 monoclonal antibodies for conjugation as primary immunotoxin, in vitro cell proliferation assays were performed in the presence of anti-Eag1 antibody in conjunction with a secondary antibody conjugated to saporin, a ribosome-inactivating protein from the seeds of the plant Saponaria officinalis. The secondary immunotoxin binds to the anti-Eag1 antibody is internalized into the cell alongside the primary antibody. Once the immunotoxin is internalised, saporin breaks away from the targeting agent and inactivates the ribosomes, which causes protein inhibition and, ultimately, cell death.
For the assay (FIG. 8a) 3000 IPC-298 cells were seeded in 60 μl/well FCS-containing medium on 96-well plates overnight. 100 ng/well (1 ng/μl) Mab-ZAP was mixed with 10 ng/μl of mouse monoclonal anti-Eag1 antibodies ImAb1 or ImAb4 in 40 μl FCS-containing medium for 1 h at 37° C. and then directly added to the cells in quadruplicates. […] The quantity of formazan product was measured by the amount of 490 nm absorbance using an ELISA plate reader.
For the assay shown in FIG. 8b 3000 IPC-298 cells were seeded in 60 μl/well FCS-containing medium on 96-well plates overnight. […] Absorbance was measured using a spectrofluorometer at 590 nm every 30 min.

[3] = molecular target: T1, Eag1 currents; assay: Whole cell patch clamp, Eag1 currents in transfected HEK293 cells; type: cell-based; details: 300 nM, control antibody
Protocol: To characterize effective affinity and specificity of the antibodies, block of Eag1 currents by ImAb3 in transfected HEK293 cells was tested in the whole cell configuration of the patch clamp technique. Currents were elicited by the depicted (FIG. 18a) pulse protocol (depolarization to +40 mV from a holding potential of −80 mV). Once a stable current level had been achieved, the antibody was applied to the bath chamber at a concentration of 300 nM, (approx 45 μg/ml). […] The antibody and the peptide were incubated (1:1 representing approximately 50 times molar excess of the peptide) at room temperature for 1 h and the mixture was used as described for the antibody alone.

Molecule	inhibition of cell proliferation [1]	inhibition of cell proliferation [2]	effect on current amplitudes [3]
B1	inhibit human cancer cell growth		
B2		inhibition of IPC-298 melanoma cell proliferation	showed no effect on current amplitudes
